Two molecules from patent publication US20230220080A1 (EPIMAB BIOTHERAPEUTICS, published 2023) can be followed below.

The target of assay [1] is T1, human EGFR, recombinant protein (human, UniProt P00533 25-645).
T1 construct: also called hEGFR
Description: method not stated.

Assay [2] addresses T2, c-Met, recombinant protein (human, UniProt P08581 25-932, limits assumed).
T2 construct: also called human cMet; cMet-his
Description: SPR. For orientation: In SPR one partner is held on a chip, and binding of the other changes the refractive index at the surface.

The target in assay [3] is T2, c-Met, recombinant protein. Description: method not stated.
In another assay the target is membrane EGFR on cells (human, UniProt P00533 25-1210). Description: cell-based or functional assay.
The target of assay [4] is T2, c-Met, recombinant protein. Description: protein based binding; method not stated.
The next assay deals with Cyno cMet (cynomolgus, UniProt A0A2K5UM36 25-932). Description: protein based binding; method not stated.
Chain of Cyno cMet (A0A2K5UM36 entry or part of it limits assumed): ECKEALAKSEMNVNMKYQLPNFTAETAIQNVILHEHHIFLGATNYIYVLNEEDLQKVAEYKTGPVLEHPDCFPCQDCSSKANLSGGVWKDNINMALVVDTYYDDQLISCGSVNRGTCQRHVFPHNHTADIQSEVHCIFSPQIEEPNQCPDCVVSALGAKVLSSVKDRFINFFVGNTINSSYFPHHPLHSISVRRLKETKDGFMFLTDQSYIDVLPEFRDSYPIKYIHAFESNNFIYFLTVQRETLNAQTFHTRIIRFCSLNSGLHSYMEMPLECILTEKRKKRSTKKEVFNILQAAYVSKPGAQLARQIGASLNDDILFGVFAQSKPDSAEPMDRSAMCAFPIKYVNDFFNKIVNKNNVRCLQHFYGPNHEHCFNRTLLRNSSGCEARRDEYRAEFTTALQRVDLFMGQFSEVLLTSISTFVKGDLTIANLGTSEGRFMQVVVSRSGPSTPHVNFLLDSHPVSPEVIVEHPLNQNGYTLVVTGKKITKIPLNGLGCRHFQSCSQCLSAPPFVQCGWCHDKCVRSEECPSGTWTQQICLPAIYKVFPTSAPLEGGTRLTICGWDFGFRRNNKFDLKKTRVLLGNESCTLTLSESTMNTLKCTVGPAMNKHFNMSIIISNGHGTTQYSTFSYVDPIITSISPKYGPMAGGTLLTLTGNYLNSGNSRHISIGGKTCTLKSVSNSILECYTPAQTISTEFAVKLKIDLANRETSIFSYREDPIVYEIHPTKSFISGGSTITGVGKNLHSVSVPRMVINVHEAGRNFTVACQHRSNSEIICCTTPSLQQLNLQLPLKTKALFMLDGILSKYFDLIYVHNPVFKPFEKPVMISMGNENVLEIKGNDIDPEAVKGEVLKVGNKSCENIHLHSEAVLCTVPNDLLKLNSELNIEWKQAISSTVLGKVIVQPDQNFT

T2 sequence (P08581 25-932 limits assumed): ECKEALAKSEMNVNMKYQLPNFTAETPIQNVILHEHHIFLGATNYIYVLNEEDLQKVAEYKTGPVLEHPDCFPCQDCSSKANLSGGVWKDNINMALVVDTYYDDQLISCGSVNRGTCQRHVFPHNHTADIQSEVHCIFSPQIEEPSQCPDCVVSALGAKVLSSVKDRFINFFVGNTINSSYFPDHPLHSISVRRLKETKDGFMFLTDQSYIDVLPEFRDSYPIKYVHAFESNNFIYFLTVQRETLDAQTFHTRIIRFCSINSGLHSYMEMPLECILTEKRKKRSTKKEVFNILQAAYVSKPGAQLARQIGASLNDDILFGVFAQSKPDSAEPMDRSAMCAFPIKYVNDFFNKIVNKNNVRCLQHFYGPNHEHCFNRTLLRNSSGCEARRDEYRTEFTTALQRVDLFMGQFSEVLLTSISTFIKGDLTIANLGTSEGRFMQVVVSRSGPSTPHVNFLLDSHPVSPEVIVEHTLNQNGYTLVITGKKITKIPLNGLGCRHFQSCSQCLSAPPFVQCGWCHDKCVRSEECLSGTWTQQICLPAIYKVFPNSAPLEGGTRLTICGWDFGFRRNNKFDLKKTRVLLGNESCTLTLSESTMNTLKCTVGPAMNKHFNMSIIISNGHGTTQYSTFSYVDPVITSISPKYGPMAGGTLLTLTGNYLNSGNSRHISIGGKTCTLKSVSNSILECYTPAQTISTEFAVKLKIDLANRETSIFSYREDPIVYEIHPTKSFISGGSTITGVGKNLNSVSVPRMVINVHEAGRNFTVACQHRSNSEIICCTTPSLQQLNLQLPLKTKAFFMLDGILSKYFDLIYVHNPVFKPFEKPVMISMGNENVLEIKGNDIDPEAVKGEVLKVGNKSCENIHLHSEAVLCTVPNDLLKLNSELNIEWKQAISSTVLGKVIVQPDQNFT

B1: FIT13a-Ig cMet (h1332)/EGFR (panitumumab) (bispecific antibody, human IgG1, kappa)
chain 1: not shown
chain 2: QVQLVQSGAEVKKPGASVKVSCKASGYTFTSYGFSWVRQAPGQGLEWMGWISASNGNTYYAQKLQGRVTMTTDTSTSTAYMELRSLRSDDTAVYYCARVYADYADYWGQGTLVTVSSASTKGPSVFPLAPSSKSTSGGTAALGCLVKDYFPEPVTVSWNSGALTSGVHTFPAVLQSSGLYSLSSVVTVPSSSLGTQTYICNVNHKPSNTKVDKKVEPKSC
chain 3: not shown
notes: also called FIT-Ig13a
For B1, in assay [1], the Kd (as a rule, the equilibrium constant for the complex coming apart) is 1.52 nM.

B2: cMet antibody h1332 (13.3.2L-A91T,H-42K,S97T) (antibody, V domains shown)
VH: QVQLVQSGAEVKKPGASVKVSCKASGYTFTSYGFSWVRQAPGQGLEWMGWISASNGNTYYAQKLQGRVTMTTDTSTSTAYMELRSLRSDDTAVYYCARVYADYADYWGQGTLVTVSS
VL: DIQMTQSPSSVSASVGDRVTITCRASQGINTWLAWYQQKPGKAPKLLIYAASSLKSGVPSRFSGSGSGTDFTLTISSLQPEDFATYYCQQANSFPLTFGGGTKVEIK
notes: parental mAb; also called mAb-h1332
On to B2, for which the Kd in assay [2] was found to be 2.19 nM; in assay [3], 2.63 nM; in assay [4] it was 1.27 nM; with Cyno cMet it was 4.53 nM. Besides, the “EGFR Depletion (%) on H441 cell, FACS” value in the assay with membrane EGFR on cells stood at 0%.
